This is an account of results in patent EP4499701A1 (dated 2025).

This assay concerns the target T1, human FGFR2b expressed on cells (human, UniProt P21802-3 22-822).
T1 construct: whole, on cells; Used for the CHOK1 transfectants (FACS), the Ba/F3 cells with full-length human FGFR2b (ADCC) and the receptor on SNU-16 cells (signalling, proliferation); also called hFGFR2b-expressing CHOK1 cells; CHOK1-FGFR2IIIb transfectants
As to the kind of experiment: flow cytometry on CHOK1 cells expressing hFGFR2b.

T1 sequence (P21802 other isoform, or with tags, fused parts or gaps): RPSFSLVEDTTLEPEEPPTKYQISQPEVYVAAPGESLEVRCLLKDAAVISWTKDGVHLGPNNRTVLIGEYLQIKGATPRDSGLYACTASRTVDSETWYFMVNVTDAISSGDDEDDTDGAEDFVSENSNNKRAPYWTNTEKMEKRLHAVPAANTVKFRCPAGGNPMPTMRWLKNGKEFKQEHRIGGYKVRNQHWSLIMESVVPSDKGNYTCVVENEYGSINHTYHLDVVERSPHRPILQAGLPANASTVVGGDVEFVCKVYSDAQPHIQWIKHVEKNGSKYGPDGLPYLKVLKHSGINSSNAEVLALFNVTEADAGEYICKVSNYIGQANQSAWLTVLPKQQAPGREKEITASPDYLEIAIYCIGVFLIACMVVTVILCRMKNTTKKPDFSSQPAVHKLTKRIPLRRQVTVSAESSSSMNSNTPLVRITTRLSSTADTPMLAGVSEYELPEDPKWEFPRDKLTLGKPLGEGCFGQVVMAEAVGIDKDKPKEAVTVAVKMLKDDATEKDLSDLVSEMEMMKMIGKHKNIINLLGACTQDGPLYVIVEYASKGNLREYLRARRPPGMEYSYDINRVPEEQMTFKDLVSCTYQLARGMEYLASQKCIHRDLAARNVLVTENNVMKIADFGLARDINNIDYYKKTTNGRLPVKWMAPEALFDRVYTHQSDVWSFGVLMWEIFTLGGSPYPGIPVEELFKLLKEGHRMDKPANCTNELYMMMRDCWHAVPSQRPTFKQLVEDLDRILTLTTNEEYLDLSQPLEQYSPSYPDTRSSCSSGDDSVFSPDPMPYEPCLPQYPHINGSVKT

B1: HC18 (antibody, human IgG1, kappa, V domains shown)
VH: EVQLQQSGTVLARPGASVKMSCKTSGYTFTSYWMHWVKQRPGQGLEWIGSIYPENSDTSYNQKFKGKAKLTAVTSASTAYMDLSSLTNEDSAVYYCSIYHGYDGDYWGQGTTLTVSS
VL: QIVLTQSPAIMSASPGEKVTITCSASSSVSYMYWFQQKPGTSPKLWIYSTSNLASGVPARFSGSGSGTSYSLTISRMEAEDAATYYCQQRSSYPYTFGGGTKLEIKR
notes: also called mAb HC18; the antibody of the present disclosure
Turning to B1, the binding result was “binds”.
